How the values were obtained:
[1] = biological target: CyPet-(pre-SUMO2)-YPet (human) (UniProt P61956)
[2] = biological target: CyPet-(pre-SUMO1)-YPet (human) (UniProt P63165)
[3] = biological target: CyPet-(pre-SUMO3)-YPet (human) (UniProt P55854)
Chain of UniProt P55854 (P55854 1-92): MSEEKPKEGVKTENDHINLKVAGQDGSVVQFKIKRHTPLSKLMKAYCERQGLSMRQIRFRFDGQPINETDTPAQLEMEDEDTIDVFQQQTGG

Chain of UniProt P61956 (P61956 whole entry): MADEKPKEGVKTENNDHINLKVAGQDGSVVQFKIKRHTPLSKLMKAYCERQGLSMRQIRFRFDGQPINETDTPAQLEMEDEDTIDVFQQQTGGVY
Chain of UniProt P63165 (P63165 1-97): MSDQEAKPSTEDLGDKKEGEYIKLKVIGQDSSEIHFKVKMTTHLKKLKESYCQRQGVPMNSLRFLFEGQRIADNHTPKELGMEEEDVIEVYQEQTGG

Km of the SENP1 catalytic domain for CyPet-(pre-SUMO2)-YPet, FRET-based protease assay, Michaelis-Menten fit, real-time detection (internal calibration) [1]: 0.17 µM
Km of the SENP1 catalytic domain for CyPet-(pre-SUMO2)-YPet, FRET-based protease assay, Michaelis-Menten fit, standard curve analysis [1]: 0.17 µM
Km of the SENP1 catalytic domain for CyPet-(pre-SUMO1)-YPet, FRET-based protease assay, Michaelis-Menten fit, real-time detection (internal calibration) [2]: 0.14 µM
Km of the SENP1 catalytic domain for CyPet-(pre-SUMO1)-YPet, FRET-based protease assay, Michaelis-Menten fit, standard curve analysis [2]: 0.18 µM
Km of the SENP1 catalytic domain for CyPet-(pre-SUMO3)-YPet, FRET-based protease assay, Michaelis-Menten fit, real-time detection (internal calibration) [3]: 1.99 µM
Km of the SENP1 catalytic domain for CyPet-(pre-SUMO3)-YPet, FRET-based protease assay, Michaelis-Menten fit, standard curve analysis [3]: 3.75 µM
Substance: catalytic domain of SENP1 (enzyme)

Reference: PMC3673099
